The source of these data is patent US20240342283A1 (SHANDONG BOAN BIOTECHNOLOGY, published 2024).

For assay [1], the target named is T1, Biotinylated Human ROR1 Protein, His, Avitag (Acro biosystem) (human, UniProt Q01973 30-403, biotinylated (Avitag)).
T1 construct: Bought reagent; not shown: His tag and Avitag
As to the kind of experiment: flow cytometry of CAR-electroporated primary T cells stained with Biotinylated Human ROR1 Protein, His, Avitag. An excerpt: To screen for CAR activity, the above-obtained T cells were electroporated with PiggyBac plasmids (shown in FIG. 3) with the CAR cassette as well as PiggyBac Transposon mRNA. CAR expression in primary T cells was confirmed by flow cytometry using Biotinylated Human ROR1 Protein, His, Avitag (Acro biosystem) (FIG. 18A).
On the technique in general: A flow cytometer gives signals particle by particle.

For assay [2], the target named is T2, Receptor tyrosine kinase-like orphan receptor 1 (ROR1) on ROR1-positive cells (human, UniProt Q01973 30-937). As to the kind of experiment: cell-based or functional assay.
For assay [3], the target named is T2, Receptor tyrosine kinase-like orphan …. As to the kind of experiment: cell-based or functional assay. The source holds these as a separate data set.

T2 sequence (Q01973 30-937): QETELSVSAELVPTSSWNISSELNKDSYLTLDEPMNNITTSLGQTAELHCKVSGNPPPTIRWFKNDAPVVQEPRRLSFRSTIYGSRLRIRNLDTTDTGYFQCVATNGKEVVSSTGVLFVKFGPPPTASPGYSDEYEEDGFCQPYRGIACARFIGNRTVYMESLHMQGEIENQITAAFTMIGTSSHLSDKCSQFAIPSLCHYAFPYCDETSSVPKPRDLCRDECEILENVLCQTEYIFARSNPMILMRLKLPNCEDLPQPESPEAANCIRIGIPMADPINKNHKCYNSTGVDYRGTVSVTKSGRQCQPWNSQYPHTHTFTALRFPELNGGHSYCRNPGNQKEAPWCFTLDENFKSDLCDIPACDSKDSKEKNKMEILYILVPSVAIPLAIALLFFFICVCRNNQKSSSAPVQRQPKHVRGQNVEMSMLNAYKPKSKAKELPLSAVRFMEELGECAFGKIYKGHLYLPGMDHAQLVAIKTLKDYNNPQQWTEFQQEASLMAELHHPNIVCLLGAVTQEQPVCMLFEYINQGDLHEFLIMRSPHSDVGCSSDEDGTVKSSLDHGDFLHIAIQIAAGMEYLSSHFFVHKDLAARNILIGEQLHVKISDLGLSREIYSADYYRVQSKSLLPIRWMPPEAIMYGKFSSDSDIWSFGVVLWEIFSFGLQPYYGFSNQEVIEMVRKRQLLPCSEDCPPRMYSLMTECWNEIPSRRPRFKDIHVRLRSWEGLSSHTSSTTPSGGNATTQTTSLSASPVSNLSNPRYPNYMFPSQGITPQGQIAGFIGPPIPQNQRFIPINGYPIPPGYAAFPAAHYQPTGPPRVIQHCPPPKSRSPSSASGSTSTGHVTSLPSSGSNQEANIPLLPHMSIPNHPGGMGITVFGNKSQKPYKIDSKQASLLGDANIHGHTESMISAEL
T1 sequence (Q01973 30-403 limits assumed): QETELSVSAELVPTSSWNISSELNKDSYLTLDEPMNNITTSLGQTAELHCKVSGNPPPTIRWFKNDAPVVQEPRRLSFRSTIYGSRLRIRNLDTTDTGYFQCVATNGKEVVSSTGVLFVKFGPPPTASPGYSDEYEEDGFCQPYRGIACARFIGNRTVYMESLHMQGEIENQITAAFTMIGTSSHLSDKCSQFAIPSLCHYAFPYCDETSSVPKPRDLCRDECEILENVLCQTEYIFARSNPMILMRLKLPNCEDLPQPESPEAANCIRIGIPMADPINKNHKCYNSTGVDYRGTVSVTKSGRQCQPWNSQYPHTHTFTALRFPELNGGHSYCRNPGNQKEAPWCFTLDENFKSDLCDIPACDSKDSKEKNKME

B1: R12 ROR1 CAR (other)
CAR: QEQKVESGGRLVTPGGSLTLSCKASGFDFSAYYMSWVRQAPGKGLEWIATIYPSSGKTYYATWVNGRFTISSDNAQNTVDLQMNSLTAADRATYFCARDSYADDGALFNIWGPGTLVTISSGGGGSGGGGSGGGGSELVLTQSPSVSAALGSPAKITCTLSSAHKTDTIDWYQQLQGEAPRYLMQVQSDGSYTKRPGVPDRFSGSSSGADRYLIIPSVQADDEADYYCGADYIGGYVFGGGTQLTVTGTTTPAPRPPTPAPTIASQPLSLRPEACRPAAGGAVHTRGLDFACDIYIWAPLAGTCGVLLLSLVITLYCKRGRKKLLYIFKQPFMRPVQTTQEEDGCSCRFPEEEEGGCELRVKFSRSADAPAYKQGQNQLYNELNLGRREEYDVLDKRRGRDPEMGGKPRRKNPQEGLYNELQKDKMAEAYSEIGMKGERRRGKGHDGLYQGLSTATKDTYDALHMQALPPR
notes: Benchmark chimeric antigen receptor on electroporated primary T cells; also called R12 CAR; Benchmark Control R12
As for B1, in assay [1], the “CAR Positive rate” value came to 30.7%. For the same molecule, in assay [2], the “Specific lysis (%) of MDA-MB-231, Effector to Target ratio 1:1” value is 12.6% and the “Specific lysis (%) of MDA-MB-231, Effector to Target ratio 3:1” value was found to be 28.9%. In assay [3], the “IFN-gamma cytokine release (pg/mL), co-culture with MDA-MB-231, Effector to Target ratio 1:1” value is 20500 pg/mL and the “IFN-gamma cytokine release (pg/mL), co-culture with MDA-MB-231, Effector to Target ratio 3:1” value stood at 40600 pg/mL.

B2: RC005c (other)
CAR: EVQLVQSGAEVKKPGATVKISCKVSGYTFTDYEMHWVKQAPGKGLEWIGAIDPETGGTAYNQKFKGRATITADKSSSTAYMELSSLRSEDSAVYYCTPYYGYAMDYWGQGTLVTVSSGGGGSGGGGSGGGGSDIQLTQSPSFLSASVGDRVTITCKASQNVGTNVAWYQQKPGKAPKLLIYWASTRHTGVPSRFSGSGSGTEFTLTISSLQPEDFATYFCQQYSSYPLTFGQGTKLEIKTTTPAPRPPTPAPTIASQPLSLRPEACRPAAGGAVHTRGLDFACDIYIWAPLAGTCGVLLLSLVITLYCKRGRKKLLYIFKQPFMRPVQTTQEEDGCSCRFPEEEEGGCELRVKFSRSADAPAYKQGQNQLYNELNLGRREEYDVLDKRRGRDPEMGGKPRRKNPQEGLYNELQKDKMAEAYSEIGMKGERRRGKGHDGLYQGLSTATKDTYDALHMQALPPR
notes: Chimeric antigen receptor on electroporated Jurkat cells or primary T cells; also called RC005c (hu709 VH4VL2); hu709 VH4VL2 CAR
Regarding B2, the “CAR Positive rate” value in assay [1] stood at 28%. In addition, in assay [2], the “Specific lysis (%) of MDA-MB-231, Effector to Target ratio 1:1” value amounted to 10.6% and the “Specific lysis (%) of MDA-MB-231, Effector to Target ratio 3:1” value came out at 32.6%. In addition, in assay [3], the “IFN-gamma cytokine release (pg/mL), co-culture with MDA-MB-231, Effector to Target ratio 1:1” value came to 14600 pg/mL and the “IFN-gamma cytokine release (pg/mL), co-culture with MDA-MB-231, Effector to Target ratio 3:1” value is 36800 pg/mL.
